Assay results from IntAct's records for PubMed 21946560.

B1: DNA replication regulator DPB11 (Saccharomyces cerevisiae), P47027 (parent)
chain: MKPFQGITFCPTAINNEILAKKISKKIIKLGGIFSKDLTRQVNVLVVGSTTNTNKFKFAVKHRFDIIFIDIQAIDDIYQLWLSGENILPDSNTATMTGSTYEMLKILYRRFSFKYLHNFNIFIGRITDTNITSIDSLVRSIKKLGCSSYNYQNFVIKDTSSHNDDDDQGQNGQISIFVTDTLLGARVNAAIEQNIPIVHFKWILDCQKRSALLPYDPYYLLPNIKDLPYDSIGSNSCDCWDKINTTFPTNIDAQSSLQRQQSSSTLTPSLPKTSSLLNKFKPKGEKIWDKAMSLQQHSKTNFSVLGQSPLSINNKQEDLSDNSTLIFKNCAFIIHHIFPGNHRSILTKIVVQNGGKIETSYLSGIYDHSYYIIPSNKALDSFNDLPEIIDDNDGIVTEFFIERCLYYQKLLHPIDLWSKPFLSTIEFQVSSSSKLLHHEFSSSPFLNVTITGFSGVELLHLTKVLNLLKPMGINYVEYLNKSTDILLINLAALPSIPKTHPLWSNEFSDLFTQFCINNNNDDPGDNNRKDFQNNSILRNSMKRKIEYIKKFHSIPVVTPAFIFKLLSAASGENNEIFLNNIKWCIICPRGHKDDFKCKIKKPYYTSISSEKKYQNNDPKIDKTILLKRNNSSLSEHSMKDTKNELLQKIRETDSGRKKRSVSSSIMDVSSERQMPDTKRIKLESLPKNFVPKQIKRTTSWGTIMSENVPTEQPTAISNPEEIPRTEEVSHTQVTYGSIQDKKRTASLEKPMRRQTRNQTKELDS
partner: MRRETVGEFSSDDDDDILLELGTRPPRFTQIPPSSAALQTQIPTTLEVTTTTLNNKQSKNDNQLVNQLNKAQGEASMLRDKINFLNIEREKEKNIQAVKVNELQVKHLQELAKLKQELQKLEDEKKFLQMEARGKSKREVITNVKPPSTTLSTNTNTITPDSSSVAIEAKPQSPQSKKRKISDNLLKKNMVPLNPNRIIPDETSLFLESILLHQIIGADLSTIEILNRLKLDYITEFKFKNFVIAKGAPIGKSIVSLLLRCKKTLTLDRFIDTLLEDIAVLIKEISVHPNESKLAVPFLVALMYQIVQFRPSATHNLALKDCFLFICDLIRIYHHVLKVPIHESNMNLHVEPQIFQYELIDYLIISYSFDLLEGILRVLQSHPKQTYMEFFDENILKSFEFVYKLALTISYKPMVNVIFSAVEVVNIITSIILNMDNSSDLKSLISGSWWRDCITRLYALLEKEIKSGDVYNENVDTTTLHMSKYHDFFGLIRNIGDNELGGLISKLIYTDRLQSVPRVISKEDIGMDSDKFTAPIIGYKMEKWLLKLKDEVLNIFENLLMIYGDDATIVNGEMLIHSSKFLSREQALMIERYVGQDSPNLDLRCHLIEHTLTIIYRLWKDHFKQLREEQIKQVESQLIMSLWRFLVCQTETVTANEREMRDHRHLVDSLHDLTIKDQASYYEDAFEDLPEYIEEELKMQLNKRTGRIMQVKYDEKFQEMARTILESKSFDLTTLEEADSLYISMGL
B2: DNA repair protein RAD9 (Saccharomyces cerevisiae), P14737 (parent)
chain: MSGQLVQWKSSPDRVTQSAIKEALHSPLADGDMNEMNVPVDPLENKVNSTNIIEGSPKANPNPVKFMNTSEIFQKSLGLLDESPRHDDELNIEVGDNDRPNANILHNERTPDLDRIANFFKSNRTPGKENLLTKYQSSDLEDTPLMLRKKMTFQTPTDPLEQKTFKKLKSDTGFCYYGEQNDGEENASLEVTEADATFVQMAERSADNYDCALEGIVTPKRYKDELSKSGGMQDERVQKTQIMISAESPNSISSYDKNKITGNGRTTRNVNKVFNNNEDNIGAIEEKNPVKKKSENYSSDDLRERNNQIIQSNESEEINELEKNLNVSGRENDVNNLDIDINSAVSGTPSRNNAEEEMYSSESVNNREPSKKWIFRYSKDKTENNSNRSTQIVNNPRTQEMPLDSISIDTQPLSKSFNTETNNELETQIIVSSLSQGISAQKGPVFHSTGQTEEIKTQIINSPEQNALNATFETPVTLSRINFEPILEVPETSSPSKNTMSKPSNSSPIPKEKDTFNIHEREVETNNVFSNDIQNSSNAATRDDIIIAGSSDFNEQKEITDRIYLQLSGKQISDSGSDETERMSPNELDTKKESTIMSEVELTQELPEVEEQQDLQTSPKKLVVEEETLMEIKKSKGNSLQLHDDNKECNSDKQDGTESLDVALIEHESKGQSSELQKNLMQLFPSESQEIIQNRRTIKRRQKDTIEIGEEEENRSTKTSPTKHLKRNSDLDAASIKREPSCSITIQTGETGSGKDSKEQSYVFPEGIRTADNSFLSKDDIIFGNAVWCQYTWNYKFYPGILLEVDTNQDGCWIYFETGRSLTKDEDIYYLDIRIGDAVTFDGNEYVVVGLECRSHDLNIIRCIRGYDTVHLKKKNASGLLGKRTLIKALSSISLDLSEWAKRAKIILEDNEKNKGDAYRYLRHPIRGRKSMTNVLSPKKHTDDEKDINTHTEVYNNEIESSSEKKEIVKKDSRDALAEHAGAPSLLFSSGEIRTGNVFDKCIFVLTSLFENREELRQTIESQGGTVIESGFSTLFNFTHPLAKSLVNKGNTDNIRELALKLAWKPHSLFADCRFACLITKRHLRSLKYLETLALGWPTLHWKFISACIEKKRIVPHLIYQYLLPSGESFRLSLDSPSKGGIIKSNNIFSFYTQFLRGSNLRDQICGVKKMLNDYIVIVWGRSELDSFVKFAFACLSAGRMLTIDLPNIDVDDTEPLLNALDSLVPRIGSELSNRKLKFLIYANENNGKSQMKLLERLRSQISLKFKKFNYIFHTESKEWLIQTIINEDTGFHDDITDNDIYNTISEVR
partner: B1 chain

Variants of: B1
Details: with lcd1_yeast LCD1, Q04377
With W700A the “effect of a mutation on the interaction” value was “disrupting interaction”.
In the case of G701A, the “effect of a mutation on the interaction” value is reported as “disrupting interaction”.

Variants of: B1
Details: with lcd1_yeast LCD1, Q04377
Remark: another data set of the same source
Y735A was tested, and the “effect of a mutation on the interaction” value was “decreasing interaction”.
In the case of G736A, the “effect of a mutation on the interaction” value is reported as “decreasing interaction”.

Variants of: B1
Details: with lcd1_yeast LCD1, Q04377
Remark: another data set of the same source
G701A was tested, and the “effect of a mutation on the interaction” value was “decreasing interaction”.

Variants of: B2
Details: with dpb11_yeast DPB11, P47027
S462A was tested, and the “effect of a mutation on the interaction” value was “disrupting interaction”.
With T474A the “effect of a mutation on the interaction” value was “disrupting interaction”.

Variants of: B2
Details: with dpb11_yeast DPB11, P47027
Remark: another data set of the same source
For T474A, the “effect of a mutation on the interaction” value was “decreasing interaction”.
